The values below come from publication PMC2873776.

pKd: −log10 of the molar value.

What is called pKd is the negative decadic logarithm of the Kd, by convention in mol/L. As usually defined, the stoichiometry N is the number of molecules, sites or subunits per partner or assembly.

Assay [1] addresses CheA (Thermotoga maritima) (UniProt Q56310). As to conditions: cited from earlier work.
In assay [2] the target is CheA:CheW complex (CheAΔ289 dimer with one CheW bound to each subunit) (T. maritima) (UniProt Q56310). Put plainly: pulsed dipolar ESR spectroscopy.
The target of assay [3] is CheAΔ289 (290–671) (T. maritima) (UniProt Q56310). Put plainly: pulsed dipolar ESR spectroscopy.

Sequence of CheA (Thermotoga maritima) (Q56310 whole entry): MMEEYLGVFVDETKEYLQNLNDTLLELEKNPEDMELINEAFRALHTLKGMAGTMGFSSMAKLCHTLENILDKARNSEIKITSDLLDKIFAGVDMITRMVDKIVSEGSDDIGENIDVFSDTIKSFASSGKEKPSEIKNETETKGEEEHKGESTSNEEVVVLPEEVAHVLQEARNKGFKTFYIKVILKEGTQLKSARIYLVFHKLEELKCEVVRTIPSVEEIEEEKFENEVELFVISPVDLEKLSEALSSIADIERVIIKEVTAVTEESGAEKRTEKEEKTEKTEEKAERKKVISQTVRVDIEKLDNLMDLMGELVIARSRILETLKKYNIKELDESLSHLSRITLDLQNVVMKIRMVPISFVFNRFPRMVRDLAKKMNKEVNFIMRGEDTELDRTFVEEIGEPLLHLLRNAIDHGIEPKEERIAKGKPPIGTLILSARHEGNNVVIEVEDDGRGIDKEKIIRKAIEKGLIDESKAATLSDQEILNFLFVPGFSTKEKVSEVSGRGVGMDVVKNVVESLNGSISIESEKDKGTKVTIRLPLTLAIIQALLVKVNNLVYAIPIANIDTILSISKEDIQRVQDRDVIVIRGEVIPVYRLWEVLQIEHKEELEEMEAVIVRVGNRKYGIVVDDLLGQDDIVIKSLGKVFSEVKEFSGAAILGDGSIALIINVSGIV
Sequence of CheW (Q56311 whole entry): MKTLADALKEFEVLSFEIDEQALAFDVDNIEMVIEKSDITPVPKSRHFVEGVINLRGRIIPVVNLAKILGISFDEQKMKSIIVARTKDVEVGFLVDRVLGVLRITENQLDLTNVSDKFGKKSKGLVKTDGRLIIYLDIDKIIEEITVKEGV

With CheW (from UniProt Q56311), the pKd in assay [1] was 7.00. “Tm14C (Tm14: residues 40–213) (domain or fragment)” registered a stoichiometry N (Tm14 dimer per CheA:CheW dimer) in assay [2] of 1.

On to “CheAΔ289 (290–671) (from UniProt Q56310 290-671) (domain or fragment)”, for which the stoichiometry N in assay [3] was determined as 4.
